B1: huAb1 (antibody, V domains shown)
VH: QIQLVQSGSELKKPGASVKVSCKASGYTFTKYSMHWVRQAPGQGLEWMARINTETGNPTYADGFRGRFVVSLDTSVSTAYLQISSLKAEDTAVYYCAIFYYGRDTWGQGTTVTVSS
VL: DIVMTQSPDSLAVSLGERATINCKSSQSLLHSRSRKNYLAWYQQKPGQPPKLLIYWASTRESGVPDRFSGSGSGTDFTLTISSLQAEDVAVYYCKQSYNLLSFGQGTKLEIK
notes: also called anti-αvβ8 antibody
B2: muAb1 (antibody, V domains shown)
VH: B1 VH
VL: B1 VL
notes: also called murine-human hybrid monoclonal anti-αVβ8 antibody; murine compatible version of huAb1

Columns and labels:
integrin αVβ8 (human) = biological target: T1, integrin αVβ8 (human) (human, UniProt P06756 31-992; P26012 43-684); experiment: SPR, mAb captured on anti-Fc CM5 chip, integrin injected, 37 C, 1:1 fit
T1 construct: Integrin heterodimer injected as analyte in SPR; also called avb8
Experimental: (§1) Antibodies were assessed by surface plasmon resonance (SPR) for the ability to bind to integrin heterodimers. mAbs were immobilized on an anti-Fc CM5 sensor chip, and integrins (0.39-50 nM for and 200 nM for others) were injected at a flow rate of […] for a contact time of 180 s and dissociation time of 400 s, at 37° C. Data were fit (grey lines) to a 1:1 antibody:ligand binding model to determine Kd.

integrin αVβ8 (murine) = biological target: T2, integrin αVβ8 (murine) (murine, UniProt P43406 31-988; Q0VBD0 43-681); experiment: as above
T2 construct: Integrin heterodimer injected as analyte in SPR; also called mαVβ8
Experimental: as §1

[1] = biological target: T3, αvβ8 expressed on the surface of LN229 cells (UniProt P06756 31-1048; P26012 43-769); experiment: cell-based competition (adhesion) assay: LN229 cells expressing αvβ8 on plate-immobilized L-TGFβ, Crystal Violet readout
T3 construct: whole, on cells; also called avb8 on LN229 cells
Experimental: (§2) Exemplary antibodies of the disclosure were evaluated for their ability to block binding of the latent form of TGFβ (L-TGFβ) to in a cell-based competition assay. TGFβ is ubiquitously expressed in the latent form and L-TGFβ promotes an immune suppressive phenotype within the tumor microenvironment. L-TGFβ was immobilized on a polystyrene plate and incubated with LN229 cells expressing and increasing concentrations of muAb1 for 30 mins at 37° C. Bound LN229 cells were quantified by Crystal Violet. Data were fit to a 4-parameter displacement curve to determine IC₅₀. […] The affinities of the two antibodies are similar as measured in this assay.

[2] = biological target: T3, αvβ8 expressed on the surface of LN229 …; experiment: cell-based competition (adhesion) assay: LN229 cells expressing αvβ8 on plate-immobilized L-TGFβ with increasing antibody, bound cells quantified by Crystal Violet, 4-parameter fit
Experimental: as §2

T3 sequence (P06756 31-1048, chain 1 of 2): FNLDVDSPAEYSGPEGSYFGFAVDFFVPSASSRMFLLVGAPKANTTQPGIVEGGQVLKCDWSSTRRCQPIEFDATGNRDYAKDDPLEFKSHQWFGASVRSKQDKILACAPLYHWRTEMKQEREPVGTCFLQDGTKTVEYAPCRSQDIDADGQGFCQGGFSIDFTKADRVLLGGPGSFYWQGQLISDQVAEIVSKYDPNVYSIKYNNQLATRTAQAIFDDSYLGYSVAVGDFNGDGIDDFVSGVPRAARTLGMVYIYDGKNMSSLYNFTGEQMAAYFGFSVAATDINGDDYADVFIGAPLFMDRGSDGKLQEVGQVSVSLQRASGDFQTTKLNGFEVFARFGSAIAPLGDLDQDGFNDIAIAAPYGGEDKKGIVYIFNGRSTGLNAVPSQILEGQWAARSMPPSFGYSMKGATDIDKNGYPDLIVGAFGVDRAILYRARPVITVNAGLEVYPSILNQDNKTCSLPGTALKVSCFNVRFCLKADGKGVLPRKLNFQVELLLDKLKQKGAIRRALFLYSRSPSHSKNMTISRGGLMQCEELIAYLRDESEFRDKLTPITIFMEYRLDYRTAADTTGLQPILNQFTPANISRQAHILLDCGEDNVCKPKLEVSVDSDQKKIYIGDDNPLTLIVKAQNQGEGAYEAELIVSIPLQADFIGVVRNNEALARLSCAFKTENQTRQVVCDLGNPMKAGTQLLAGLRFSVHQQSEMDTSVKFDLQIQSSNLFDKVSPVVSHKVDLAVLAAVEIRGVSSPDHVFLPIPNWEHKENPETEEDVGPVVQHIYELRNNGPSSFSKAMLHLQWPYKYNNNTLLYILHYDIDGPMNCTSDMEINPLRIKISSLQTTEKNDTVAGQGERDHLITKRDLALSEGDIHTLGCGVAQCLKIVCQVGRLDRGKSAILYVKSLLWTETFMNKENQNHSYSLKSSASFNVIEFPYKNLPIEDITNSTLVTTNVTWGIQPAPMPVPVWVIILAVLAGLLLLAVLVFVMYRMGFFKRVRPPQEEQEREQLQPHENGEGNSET
T3 sequence (P26012 43-769, chain 2 of 2): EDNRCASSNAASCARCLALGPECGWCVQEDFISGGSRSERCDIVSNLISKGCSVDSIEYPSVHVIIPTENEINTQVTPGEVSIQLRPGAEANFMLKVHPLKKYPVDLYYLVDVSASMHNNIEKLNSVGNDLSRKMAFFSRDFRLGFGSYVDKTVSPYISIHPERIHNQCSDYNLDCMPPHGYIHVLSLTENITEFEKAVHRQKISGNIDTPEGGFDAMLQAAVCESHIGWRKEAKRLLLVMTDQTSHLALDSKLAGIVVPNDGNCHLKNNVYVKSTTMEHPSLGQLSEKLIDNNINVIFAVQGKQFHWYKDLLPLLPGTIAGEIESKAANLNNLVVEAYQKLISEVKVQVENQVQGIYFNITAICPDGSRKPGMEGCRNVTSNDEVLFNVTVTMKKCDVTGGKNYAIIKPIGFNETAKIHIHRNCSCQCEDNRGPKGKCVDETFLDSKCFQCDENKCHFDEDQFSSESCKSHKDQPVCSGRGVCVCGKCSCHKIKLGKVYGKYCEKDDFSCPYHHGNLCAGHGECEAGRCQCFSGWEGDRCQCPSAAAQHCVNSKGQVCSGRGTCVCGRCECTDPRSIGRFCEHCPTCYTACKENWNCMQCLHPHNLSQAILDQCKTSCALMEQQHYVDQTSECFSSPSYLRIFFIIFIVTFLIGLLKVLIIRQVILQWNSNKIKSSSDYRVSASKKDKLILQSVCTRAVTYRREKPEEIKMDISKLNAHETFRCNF
T1 sequence (P06756 31-992, chain 1 of 2): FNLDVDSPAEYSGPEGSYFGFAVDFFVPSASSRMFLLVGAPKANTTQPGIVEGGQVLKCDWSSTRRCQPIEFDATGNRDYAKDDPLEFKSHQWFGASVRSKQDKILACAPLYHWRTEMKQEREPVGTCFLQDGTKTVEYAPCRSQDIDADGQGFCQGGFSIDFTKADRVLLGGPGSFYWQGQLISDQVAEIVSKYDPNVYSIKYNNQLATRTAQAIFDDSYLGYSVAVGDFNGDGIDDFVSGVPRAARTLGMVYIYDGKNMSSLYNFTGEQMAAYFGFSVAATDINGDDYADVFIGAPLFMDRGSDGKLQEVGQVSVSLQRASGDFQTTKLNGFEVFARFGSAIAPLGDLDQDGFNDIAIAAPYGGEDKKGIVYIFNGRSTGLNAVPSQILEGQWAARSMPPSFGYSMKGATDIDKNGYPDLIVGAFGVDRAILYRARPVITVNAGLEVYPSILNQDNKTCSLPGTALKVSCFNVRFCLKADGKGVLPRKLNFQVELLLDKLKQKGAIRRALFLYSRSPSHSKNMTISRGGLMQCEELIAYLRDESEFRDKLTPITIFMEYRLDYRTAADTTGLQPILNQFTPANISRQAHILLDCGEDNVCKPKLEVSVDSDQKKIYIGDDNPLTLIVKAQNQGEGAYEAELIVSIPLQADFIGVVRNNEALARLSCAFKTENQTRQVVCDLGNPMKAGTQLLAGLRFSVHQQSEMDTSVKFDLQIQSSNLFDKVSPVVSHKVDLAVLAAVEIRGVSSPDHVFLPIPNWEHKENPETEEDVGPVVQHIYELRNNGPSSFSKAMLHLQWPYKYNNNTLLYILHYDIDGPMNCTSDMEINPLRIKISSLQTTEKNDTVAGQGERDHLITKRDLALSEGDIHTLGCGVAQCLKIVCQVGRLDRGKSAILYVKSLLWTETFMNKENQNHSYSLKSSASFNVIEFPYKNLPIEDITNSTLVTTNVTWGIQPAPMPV
T1 sequence (P26012 43-684, chain 2 of 2): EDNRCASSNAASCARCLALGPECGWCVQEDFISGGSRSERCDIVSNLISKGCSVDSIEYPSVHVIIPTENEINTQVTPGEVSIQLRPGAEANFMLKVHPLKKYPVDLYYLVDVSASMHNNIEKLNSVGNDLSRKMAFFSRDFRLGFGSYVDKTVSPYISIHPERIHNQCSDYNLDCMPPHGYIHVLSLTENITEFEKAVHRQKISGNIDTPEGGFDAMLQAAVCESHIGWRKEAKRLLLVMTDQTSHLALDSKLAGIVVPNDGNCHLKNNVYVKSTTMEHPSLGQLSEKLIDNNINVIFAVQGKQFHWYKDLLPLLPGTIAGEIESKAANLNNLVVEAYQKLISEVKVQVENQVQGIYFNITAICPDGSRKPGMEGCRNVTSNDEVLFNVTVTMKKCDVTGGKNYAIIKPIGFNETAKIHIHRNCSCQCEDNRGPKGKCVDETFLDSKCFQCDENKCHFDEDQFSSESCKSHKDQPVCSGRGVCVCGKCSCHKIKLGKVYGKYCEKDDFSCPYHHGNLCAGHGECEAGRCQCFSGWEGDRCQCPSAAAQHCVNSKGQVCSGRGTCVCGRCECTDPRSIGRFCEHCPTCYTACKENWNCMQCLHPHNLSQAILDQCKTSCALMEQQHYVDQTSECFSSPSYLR
T2 sequence (P43406 31-988, chain 1 of 2): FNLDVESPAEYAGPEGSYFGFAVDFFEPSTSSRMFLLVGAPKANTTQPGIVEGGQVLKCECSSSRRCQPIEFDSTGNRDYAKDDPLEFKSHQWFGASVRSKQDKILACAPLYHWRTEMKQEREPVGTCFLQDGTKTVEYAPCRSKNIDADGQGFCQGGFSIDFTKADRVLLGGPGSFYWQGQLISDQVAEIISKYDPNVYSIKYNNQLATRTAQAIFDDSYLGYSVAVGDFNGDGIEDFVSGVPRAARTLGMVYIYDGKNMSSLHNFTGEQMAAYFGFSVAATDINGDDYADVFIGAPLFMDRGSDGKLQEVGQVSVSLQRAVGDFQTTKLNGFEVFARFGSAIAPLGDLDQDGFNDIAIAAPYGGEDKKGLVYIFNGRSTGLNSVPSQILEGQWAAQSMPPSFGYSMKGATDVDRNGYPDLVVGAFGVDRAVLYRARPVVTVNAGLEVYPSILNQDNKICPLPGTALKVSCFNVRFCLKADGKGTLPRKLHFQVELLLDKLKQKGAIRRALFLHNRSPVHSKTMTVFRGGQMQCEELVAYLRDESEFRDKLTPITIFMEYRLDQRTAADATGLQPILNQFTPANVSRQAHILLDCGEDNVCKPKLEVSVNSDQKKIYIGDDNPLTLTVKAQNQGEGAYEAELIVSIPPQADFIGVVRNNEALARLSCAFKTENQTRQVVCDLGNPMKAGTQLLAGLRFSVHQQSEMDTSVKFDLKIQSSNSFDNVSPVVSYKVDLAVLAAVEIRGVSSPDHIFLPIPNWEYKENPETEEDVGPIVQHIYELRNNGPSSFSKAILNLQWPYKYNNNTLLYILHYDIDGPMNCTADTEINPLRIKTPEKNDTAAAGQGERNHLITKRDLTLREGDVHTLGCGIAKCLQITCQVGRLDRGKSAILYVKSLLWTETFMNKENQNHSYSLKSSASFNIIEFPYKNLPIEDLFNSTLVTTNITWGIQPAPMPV
T2 sequence (Q0VBD0 43-681, chain 2 of 2): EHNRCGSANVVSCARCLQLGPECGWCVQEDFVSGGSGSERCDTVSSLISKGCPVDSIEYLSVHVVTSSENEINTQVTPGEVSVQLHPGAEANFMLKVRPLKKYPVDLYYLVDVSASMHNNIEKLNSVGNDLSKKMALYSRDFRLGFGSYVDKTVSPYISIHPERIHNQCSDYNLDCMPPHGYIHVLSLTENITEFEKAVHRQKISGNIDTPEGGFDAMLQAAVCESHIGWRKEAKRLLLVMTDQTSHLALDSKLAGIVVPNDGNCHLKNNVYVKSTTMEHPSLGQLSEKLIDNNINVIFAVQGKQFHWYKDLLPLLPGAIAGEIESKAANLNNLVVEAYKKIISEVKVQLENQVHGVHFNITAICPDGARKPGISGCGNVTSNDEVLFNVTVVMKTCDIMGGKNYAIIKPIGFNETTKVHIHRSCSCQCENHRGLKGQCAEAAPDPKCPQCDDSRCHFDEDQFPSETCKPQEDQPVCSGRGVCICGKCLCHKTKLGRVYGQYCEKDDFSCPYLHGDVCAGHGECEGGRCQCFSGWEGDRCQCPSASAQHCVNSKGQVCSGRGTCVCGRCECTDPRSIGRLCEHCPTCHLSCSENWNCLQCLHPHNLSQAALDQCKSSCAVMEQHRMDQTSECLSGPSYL

| Binder | Kd (integrin αVβ8 (human)) [nM] | Kd (integrin αVβ8 (murine)) [nM] | IC50 (read off the curve) [1] [nM] | IC50 [2] [nM] |
| --- | --- | --- | --- | --- |
| B1 | < 5 | < 5 | ~4 | < 5 |
| B2 | < 15 | < 15 | ~1 | < 5 |
